Target: the molecule itself
Assay: solution NMR structure (AlphaFold-NMR: AFsample models selected against NOESY and chemical shift data); homodimer models of CDK2AP1(61-115) scored against NOESY peak lists (including 3D X-filtered NOESY on a mixed sample of 50% [15N,13C]-labeled and 50% unlabeled CDK2AP1, recorded earlier, ref. 47; 124 further peaks picked here) and chemical shifts (BMRB 16808); validated by NOESY Double Recall

B1: Cyclin-Dependent Kinase 2-Associated Protein 1 (residues 61-115) (domain or fragment, human, UniProt O14519 61-115, looked up)
chain: SKYAELLAIIEELGKEIRPTYAGSKSAMERLKRGIIHARGLVRECLAETERNARS
notes: Cyclin-Dependent Kinase 2-Associated Protein 1 (CDK2AP1), human, residues 61-115, the homodimeric four-helix bundle; The methods mention newly assigned H58 - K62 resonances, so the sample may carry residues (perhaps of a tag) before residue 61; also called CDK2AP1; CDK2AP1_(61–115)
Q: Does B1 bind?
A: Result: binds

Reference: publication PMC11875312, “Hidden Structural States of Proteins Revealed by Conformer Selection with AlphaFold-NMR” (Research Square, 2025)
